Reference: patent publication US20230129258A1 (Bicycle, published 2023)
Starred links: 1 amine or outer side, 2 acyl side, 3 side chain; linkers in the order of their positions; H or OH if unused. Positions of bridges follow the written chain, without caps; N, C: chain ends. Non-standard residues stand in square brackets, D forms with d. Chains are numbered I, II in the order given. No end group written: not given here. *: point of attachment. TATA = O=C(CC[*:1])N1CN(C(=O)CC[*:2])CN(C(=O)CC[*:3])C1; Dip = N[C@H](C(=O)O)C(c1ccccc1)c1ccccc1; 1Nal = N[C@@H](Cc1cccc2ccccc12)C(=O)O; Hyp = O=C(O)[C@@H]1C[C@@H](O)CN1; hArg = N=C(N)NCCCC[C@H](N)C(=O)O; tBuAla = CC(C)(C)C[C@H](N)C(=O)O; Cysteamide = C(CS[*:3])N[*:1]; Cba = N[C@@H](CC1CCC1)C(=O)O; dK(PYA) = not defined here; Nle = CCCC[C@H](N)C(=O)O; Pent4ynoyl = C#CCCC(=O)*; Mpa = O=C(O)CCS

B1: BCY12587 (peptide)
peptide 1: CP[1Nal]DCM[hArg]DWSTP[Hyp]WC
peptide 2: [Mpa][tBuAla]PE[dK](Pent4ynoyl)PYCFADPY[Nle]C
modifications: linker I:1-I:5-I:15, II:1-II:8-II:15 via TATA; not fully specified (some residues); also: chain 2 present twice on linker, Nectin-4:CD137 1:2, linker at chain B 5 to a chain's N-terminus via N-(acid-PEG3)-N-bis(PEG3-azide)
B2: BCY12486 (peptide)
peptide 1: CPXDCMXDWSTPXWC
peptide 2: CXPEXPYCFANPYXC
modifications: not fully specified; BCY12147: Ac-(SEQ ID NO: 65); TATA; linker at dLys(PYA)4; BCY8116: SEQ ID NO: 1; TATA; linker at N-terminus
B3: BCY11385 (peptide)
peptide 1: CPXDCMXDWSTPXWC
peptide 2: CXPEAPYCFADPYXCX
modifications: not fully specified; BCY11014: Ac-(SEQ ID NO: 6)-Dap(PYA); TATA; linker at C-term Dap(PYA); BCY8116: SEQ ID NO: 1; TATA; linker at N-terminus
B4: BCY12484 (peptide)
peptide 1: CPXDCMXDWSTPXWC
peptide 2: CXEEXPYCFADPYXC
modifications: not fully specified; BCY12143: Ac-(SEQ ID NO: 64); TATA; linker at dLys(PYA)4; BCY8116: SEQ ID NO: 1; TATA; linker at N-terminus
B5: BCY12586 (peptide)
peptide 1: CPXDCMXDWSTPXWC
peptide 2: CXPEXPYCFADPYXX
modifications: not fully specified; BCY12352: Ac-(SEQ ID NO: 69), [Cysam] third reactive group; TATA; linker at dLys(PYA)4; BCY8116: SEQ ID NO: 1; TATA; linker at N-terminus
B6: BCY11021 (peptide)
peptide 1: CPXDCMXDWSTPXWC
peptide 2: ACIEEXQYCFADPYXCA
modifications: not fully specified; BCY7744: Ac-A-(SEQ ID NO: 12)-A; TATA; linker at dLys(PYA)4; BCY11016: [PYA]-[B-Ala]-(SEQ ID NO: 1); TATA; linker at N-term PYA
B7: BCY12590 (peptide)
peptide 1: CP[1Nal]ECM[hArg]EWSTP[Hyp]WC
peptide 2: Ac-C[tBuAla]PE[dK](Pent4ynoyl)PYCFADPY[Nle]CA
modifications: linker I:1-I:5-I:15, II:1-II:8-II:15 via TATA; not fully specified (some residues, bridges); also: chains joined via N-(acid-PEG3)-N-bis(PEG3-azide) linker, triazole at dLys(PYA)
B8: BCY12588 (peptide)
peptide 1: CP[1Nal]DCM[hArg]DWSTP[Hyp]WC
peptide 2: [Mpa][tBuAla]PE[dK](Pent4ynoyl)PYCFADPY[Nle][Cysteamide]
modifications: linker I:1-I:5-I:15, II:1-II:8-II:15 via TATA; not fully specified (some residues); also: chain 2 present twice on linker, Nectin-4:CD137 1:2, linker at chain B 5 to a chain's N-terminus via N-(acid-PEG3)-N-bis(PEG3-azide)
B9: BCY12485 (peptide)
peptide 1: CPXDCMXDWSTPXWC
peptide 2: CXPEXPYCFADPYXC
modifications: not fully specified; BCY12149: Ac-(SEQ ID NO: 63); TATA; linker at dLys(PYA)4; BCY8116: SEQ ID NO: 1; TATA; linker at N-terminus
B10: BCY10919 (peptide)
peptide 1: CPXDCMXDWSTPXWC
peptide 2: CXPEAPYCFADPYXCX
modifications: not fully specified; BCY11014: Ac-(SEQ ID NO: 6)-Dap(PYA); TATA; linker at C-term Dap(PYA); BCY11015: [PYA]-(SEQ ID NO: 1); TATA; linker at N-term PYA
B11: BCY10918 (peptide)
peptide 1: CPXDCMXDWSTPXWC
peptide 2: CXPEXPYCFADPYXCA
modifications: not fully specified; BCY8928: Ac-(SEQ ID NO: 11)-A; TATA; linker at dLys(PYA)4; BCY11015: [PYA]-(SEQ ID NO: 1); TATA; linker at N-term PYA
B12: BCY11022 (peptide)
peptide 1: CPXDCMXDWSTPXWC
peptide 2: CXPEXPYCFADPYXCA
modifications: not fully specified; BCY8928: Ac-(SEQ ID NO: 11)-A; TATA; linker at dLys(PYA)4; BCY11016: [PYA]-[B-Ala]-(SEQ ID NO: 1); TATA; linker at N-term PYA
B13: BCY11027 (peptide)
peptide 1: CPXDCMXDWSTPXWC
peptide 2: CXPEXPYCFADPYXCA
modifications: not fully specified; BCY8928: Ac-(SEQ ID NO: 11)-A; TATA; linker at dLys(PYA)4; BCY11015: [PYA]-(SEQ ID NO: 1); TATA; linker at N-term PYA
B14: BCY13280 (peptide)
peptide 1: [dA]EDC[Hyp]LVNPLCLEP[dD]WTC
peptide 2: Ac-C[tBuAla]PE[dK](Pent4ynoyl)PYCFADPY[Nle]CA
modifications: linker I:4-I:11-I:18, II:1-II:8-II:15 via TATA (inferred); not fully specified (N-terminus, bridges); also: 1:2 complex: two copies of chain 2 (BCY8928) on the branched linker
B15: BCY13053 (peptide)
peptide 1: C[Hyp][Cba]VNPLCL[Dip]P[dD]WTC[dA]
peptide 2: Ac-C[tBuAla]PE[dK](Pent4ynoyl)PYCFADPY[Nle]CA
modifications: linker I:1-I:8-I:15 via TATA; linker II:1-II:8-II:15 via TATA (inferred); not fully specified (N-terminus, bridges); also: 1:2 complex: two copies of chain 2 (BCY8928) on the branched linker
B16: BCY13343 (peptide)
peptide 1: C[Hyp]LVNPLCL[Dip]PDWTC
peptide 2: [Mpa][tBuAla]PE[dK(PYA)]PYCFADPY[Nle]C
modifications: linker I:1-I:8-I:15, II:1-II:8-II:15 via TATA; not fully specified (some residues); reading uncertain; also: 1:2 complex: two copies of chain 2 (BCY12353) on the branched linker, linker at chain B 5 to a chain's N-terminus via N-(acid-PEG3)-N-bis(PEG3-azide)
B17: BCY13273 (peptide)
peptide 1: C[Hyp]LVNPLCL[1Nal]PDWTC
peptide 2: Ac-C[tBuAla]PE[dK](Pent4ynoyl)PYCFADPY[Nle]CA
modifications: linker I:1-I:8-I:15 via TATA; linker II:1-II:8-II:15 via TATA (inferred); not fully specified (some residues, N-terminus); also: linker joins chain 1 to two chain 2 copies via PYA triazoles
B18: BCY13048 (peptide)
peptide 1: C[Hyp]LVNPLCL[Dip]P[dD]WTC
peptide 2: Ac-C[tBuAla]PE[dK](Pent4ynoyl)PYCFADPY[Nle]CA
modifications: linker I:1-I:8-I:15 via TATA; linker II:1-II:8-II:15 via TATA (inferred); not fully specified (N-terminus, bridges); also: 1:2 complex: two copies of chain 2 (BCY8928) on the branched linker
B19: BCY13049 (peptide)
peptide 1: C[Hyp]LVNPLCLEP[dD]WTC[dA]
peptide 2: Ac-C[tBuAla]PE[dK](Pent4ynoyl)PYCFADPY[Nle]CA
modifications: linker I:1-I:8-I:15, II:1-II:8-II:15 via TATA (inferred); not fully specified (N-terminus); also: linker joins chain 1 to two chain 2 copies via PYA triazoles
B20: BCY12978 (peptide)
peptide 1: A[hArg]EC[Hyp]LVNPLCLHP[dE]W[hArg]C
peptide 2: Ac-C[tBuAla]PE[dK](Pent4ynoyl)PYCFADPY[Nle]CA
modifications: linker I:4-I:11-I:18, II:1-II:8-II:15 via TATA (inferred); not fully specified (bridges); also: chain 1 N-terminus and chain 2 dLys(PYA) joined through N-(acid-PEG3)-N-bis(PEG3-azide) linker
B21: BCY13274 (peptide)
peptide 1: Ac-C[Hyp]LVNPLCL[Dip]P[dD]WTC[dK]
peptide 2: Ac-C[tBuAla]PE[dK](Pent4ynoyl)PYCFADPY[Nle]CA
modifications: linker I:1-I:8-I:15 via TATA; linker II:1-II:8-II:15 via TATA (inferred); not fully specified (bridges); also: linker N-(acid-PEG3)-N-bis(PEG3-azide) on C-terminal dK of chain 1, joins two chain 2 copies via PYA triazoles
B22: BCY13282 (peptide)
peptide 1: ADC[Hyp]LVNPLCLEP[dD]WTC
peptide 2: Ac-C[tBuAla]PE[dK](Pent4ynoyl)PYCFADPY[Nle]CA
modifications: linker I:3-I:10-I:17, II:1-II:8-II:15 via TATA (inferred); not fully specified (N-terminus, bridges); also: 1:2 complex: two BCY8928 chains on the linker
B23: BCY13341 (peptide)
peptide 1: C[Hyp][Cba]VNPLCL[Dip]P[dD]WTC[dA]
peptide 2: [Mpa][tBuAla]PE[dK(PYA)]PYCFADPY[Nle]C
modifications: linker I:1-I:8-I:15, II:1-II:8-II:15 via TATA; reading uncertain; also: linker at chain B 5 to a chain's N-terminus via N-(acid-PEG3)-N-bis(PEG3-azide)
B24: BCY13281 (peptide)
peptide 1: AADCXLVNPLCLEPDWTC
peptide 2: CXPEXPYCFADPYXCA
modifications: not fully specified; BCY8928: Ac-(SEQ ID NO: 11)-A; TATA; linker at dLys(PYA)4; BCY13127: [dA]-[dA]-D-(SEQ ID NO: 35); TATA; linker at N-terminus

Molecular target: T1, CD137 on Jurkat reporter cells (Promega kit CS196005) (UniProt Q07011 24-255, limits assumed)
Test: cell-based or functional assay

T1 sequence (Q07011 24-255 limits assumed): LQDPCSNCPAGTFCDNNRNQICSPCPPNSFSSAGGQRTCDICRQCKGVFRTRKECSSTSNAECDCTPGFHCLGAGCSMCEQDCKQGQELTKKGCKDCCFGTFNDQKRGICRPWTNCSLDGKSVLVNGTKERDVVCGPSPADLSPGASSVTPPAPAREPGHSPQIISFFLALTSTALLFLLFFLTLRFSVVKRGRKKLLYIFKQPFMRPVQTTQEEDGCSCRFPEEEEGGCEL

Binder	Fold improvement in EC50 over BCY10000 on same plate, NCI-H292	Fold improvement in Emax over BCY10000 on same plate, NCI-H292
B1	4.2 fold	2.9 fold
B2	0.25 fold	1.73 fold
B3	9.35 fold	1.28 fold
B4	5.46 fold	1.86 fold
B5	1.9 fold	3.79 fold
B6	9.63 fold	4.42 fold
B7	5.5 fold	2.73 fold
B8	0.72 fold	3.2 fold
B9	3.82 fold	2.18 fold

Molecular target: T1, CD137 on Jurkat reporter cells (Promega …)
Test: cell-based or functional assay
Remark: another data set of the same source

Binder	EC50 (nM), HT1376 co-culture	Emax (fold induction over background), HT1376
B10	0.19 nM	62 fold over background
B11	0.16 nM	–
B12	0.2 nM	66 fold over background
B13	0.18 nM	–

Molecular target: T1, CD137 on Jurkat reporter cells (Promega …)
Test: cell-based or functional assay
Remark: another data set of the same source

Binder	EC50 (nM), PC3 co-culture	Emax (fold induction over background), PC3
B14	0.19 nM	38.1 fold over background
B15	0.1 nM	40.3 fold over background
B16	0.11 nM	44 fold over background
B17	0.13 nM	51.3 fold over background
B18	0.09 nM	48.4 fold over background
B19	0.3 nM	46 fold over background
B20	0.05 nM	78.1 fold over background
B21	0.19 nM	47.4 fold over background
B22	0.22 nM	40 fold over background
B23	0.19 nM	49.1 fold over background
B24	0.17 nM	35.6 fold over background
